Measured values published in patent US20260226143A1.

Molecular target: soluble Aβ oligomers (human)
Assay: cell-based or functional assay

Substance: human IgG isotype control antibody
- Mean (Aβ spots per neuron), Isotype Control 1:50 (Aβ spots per neuron): 58.7
